The values below come from patent US20210040201A1.

Assay [1] has as its target Human TIGIT expressed on the surface of cells (human) (UniProt Q495A1). The experiment in a line: cell-based or functional assay.
Assay [2] has the same target. The experiment in a line: flow cytometry competition against 50 nM human CD155-mouse IgG2a Fc on CHOS cells expressing human TIGIT; negative control. In general terms: In flow cytometry, cells or beads pass a laser one at a time.
The target is the same in assay [3]. The experiment in a line: flow cytometry competition against 50 nM human CD155-mouse IgG2a Fc on CHOS cells expressing human TIGIT; negative control (text says IgG4).
The target is the same in assay [4]. Description: flow cytometry, antibody titrated on CHO cells expressing human TIGIT, median fluorescence intensity; fit value of the flat negative-control curve in the table under the graph.
Assay [5] has the same target. Description: flow cytometry competition with 50 nM human CD155-mouse IgG2a Fc on CHOS cells overexpressing human TIGIT; fit value of the flat negative-control curve; the row of the drawn table is headed EC50, the text calls the values IC50.

Human TIGIT expressed on the surface of cells (human), sequence (Q495A1 22-244 limits assumed): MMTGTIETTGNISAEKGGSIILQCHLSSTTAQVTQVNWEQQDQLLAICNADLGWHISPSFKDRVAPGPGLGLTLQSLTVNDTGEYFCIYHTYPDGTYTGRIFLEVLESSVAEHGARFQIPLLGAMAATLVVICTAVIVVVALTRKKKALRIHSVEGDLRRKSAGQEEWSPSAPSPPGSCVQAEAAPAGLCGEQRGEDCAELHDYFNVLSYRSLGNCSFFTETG

For IgG1 (negative control) (antibody), the EC50, MOA-based assay (luciferase reporter under IL2 promoter) in assay [1] worked out at 273 nM. The IC50 in assay [2] came to 0.039 nM; in assay [3] it was 1.15 nM.
As for IgG4 (antibody), the EC50 in assay [4] is 53200 nM. In addition, the 50% inhibitory concentration (IC50) in assay [5] stood at 1.15 nM.

A word on the IC50: it is the concentration that inhibits the measured activity by half. What is called EC50 is the midpoint of the concentration-response curve. Low values mean an effect from little substance, high ones a need for much substance.
